Test system: O=C1O[C@H]([C@@H](O)CO)C(=O)C1=O
Assay: purified protein
Details: 1 mM GSH fixed, DHA 0-0.25 mM (Figure 3 legend: 0-2.5 mM), potassium phosphate, pH 7.5, 25 °C

rGSTO2 (Fasciola hepatica)
Km: 287 µM

From paper PMC8939299, “Molecular characterization of a novel GSTO2 of Fasciola hepatica and its roles in modulating murine macrophages” (Parasite, 2022)
